According to US11419921B2, “Methods of treating neurological disorders” (EnClear Therapies, Inc., priority 2018, dated 2022):

System: (GR)10
Assay: Cleavage of (GR)10 by enzymes in solution (PBS with CaCl2 and MgCl2), LC/MS of GR repeats
Type: biochemical
Conditions: (GR)10 50 μM
Method: • (GR)10 dipeptide (also (GR)8, (GR)6, (GR)4, (GR)2) were synthetized by solid-phase synthesis by CanPeptide; All peptides are uncapped and supplied lyophilized with TFA as counter ions. Purity was always above 95%. • Buffer: PBS buffer containing CaCl2 and MgCl2. • Stock solution of enzyme (e.g., 10 mg/mL) (prepared per manufacturer instructions) in PBS. Activators added as necessary. • Working solution of protein of the desired concentration (e.g., 100 μg/mL) prepared immediately before use by diluting the stock solution (e.g., 5 μL of 10 mg/mL stock solution) in PBS buffer (e.g., in 495 μL of PBS). Exemplary Procedure Using 50 μM Concentrations of (GR)10
25 μL of a 100 μM solution of (GR)10 was added to each well of a 96-well plate. 25 μL of a solution of enzyme (two times the desired final enzyme concentration) was added, and the plates were incubated at room temperature. At the specified time points (5 minutes, 10 minutes, 30 minutes, 60 minutes, and 180 minutes) 2.5 μL of a 10% TFA solution were added to stop the reaction. For the time 0 min well, the TFA was added to the well before addition of the enzyme. After last time point, all samples were further diluted with 150 μL of dilution solution. The quenched reaction mixtures were analyzed by LC/MS to determine the concentration of GR repeats of different lengths.
The chromatography and mass spectrometry conditions utilized are shown in Table 2 and Table 3, respectively.

B1: Proteinase K: protease that cleaves peptide bonds adjacent to the carboxylic group of aliphatic and aromatic amino acids (protein)
chain: AAQTNAPWGLARISSTSPGTSTYYYDESAGQGSCVYVIDTGIEASHPEFEGRAQMVKTYYYSSRDGNGHGTHCAGTVGSRTYGVAKKTQLFGVKVLDDNGSGQYSTIIAGMDFVASDKNNRNCPKGVVASLSLGGGYSSSVNSAAARLQSSGVMVAVAAGNNNADARNYSPASEPSVCTVGASDRYDRRSSFSNYGSVLDIFGPGTSILSTWIGGSTRSISGTSMATPHVAGLAAYLMTLGKTTAASACRYIADTANKGDLSNIPFGTVNLLAYNNYQA
(GR)1 concentration (enzyme 0.25 μg/mL, 0 min): BLQ
(GR)2 concentration (enzyme 0.25 μg/mL, 0 min): BLQ
(GR)4 concentration (enzyme 0.25 μg/mL, 0 min): BLQ
(GR)6 concentration (enzyme 0.25 μg/mL, 0 min): BLQ
(GR)8 concentration (enzyme 0.25 μg/mL, 0 min): 0.3 µM
(GR)10 concentration (enzyme 0.25 μg/mL, 0 min): 44.9 µM
(GR)1 concentration (enzyme 0.25 μg/mL, 2.5 min): BLQ
(GR)2 concentration (enzyme 0.25 μg/mL, 2.5 min): BLQ
(GR)4 concentration (enzyme 0.25 μg/mL, 2.5 min): BLQ
(GR)6 concentration (enzyme 0.25 μg/mL, 2.5 min): BLQ
(GR)8 concentration (enzyme 0.25 μg/mL, 2.5 min): BLQ
(GR)10 concentration (enzyme 0.25 μg/mL, 2.5 min): 55.8 µM
(GR)1 concentration (enzyme 0.25 μg/mL, 5 min): 0.1 µM
(GR)2 concentration (enzyme 0.25 μg/mL, 5 min): BLQ
(GR)4 concentration (enzyme 0.25 μg/mL, 5 min): BLQ
(GR)6 concentration (enzyme 0.25 μg/mL, 5 min): BLQ
(GR)8 concentration (enzyme 0.25 μg/mL, 5 min): BLQ
(GR)10 concentration (enzyme 0.25 μg/mL, 5 min): 54.4 µM
(GR)1 concentration (enzyme 0.25 μg/mL, 10 min): 0.2 µM
(GR)2 concentration (enzyme 0.25 μg/mL, 10 min): BLQ
(GR)4 concentration (enzyme 0.25 μg/mL, 10 min): BLQ
(GR)6 concentration (enzyme 0.25 μg/mL, 10 min): BLQ
(GR)8 concentration (enzyme 0.25 μg/mL, 10 min): BLQ
(GR)10 concentration (enzyme 0.25 μg/mL, 10 min): 50.3 µM
(GR)1 concentration (enzyme 0.25 μg/mL, 30 min): 0.6 µM
(GR)2 concentration (enzyme 0.25 μg/mL, 30 min): 0.2 µM
(GR)4 concentration (enzyme 0.25 μg/mL, 30 min): 0.1 µM
(GR)6 concentration (enzyme 0.25 μg/mL, 30 min): BLQ
(GR)8 concentration (enzyme 0.25 μg/mL, 30 min): 0.3 µM
(GR)10 concentration (enzyme 0.25 μg/mL, 30 min): 55.1 µM
(GR)1 concentration (enzyme 0.25 μg/mL, 60 min): 1.0 µM
(GR)2 concentration (enzyme 0.25 μg/mL, 60 min): 0.3 µM
(GR)4 concentration (enzyme 0.25 μg/mL, 60 min): BLQ
(GR)6 concentration (enzyme 0.25 μg/mL, 60 min): BLQ
(GR)8 concentration (enzyme 0.25 μg/mL, 60 min): 0.3 µM
(GR)10 concentration (enzyme 0.25 μg/mL, 60 min): 56.3 µM
(GR)1 concentration (enzyme 10 μg/mL, 0 min): BLQ
(GR)2 concentration (enzyme 10 μg/mL, 0 min): BLQ
(GR)4 concentration (enzyme 10 μg/mL, 0 min): BLQ
(GR)6 concentration (enzyme 10 μg/mL, 0 min): BLQ
(GR)8 concentration (enzyme 10 μg/mL, 0 min): BLQ
(GR)10 concentration (enzyme 10 μg/mL, 0 min): 49.4 µM
(GR)1 concentration (enzyme 10 μg/mL, 2.5 min): 3.0 µM
(GR)2 concentration (enzyme 10 μg/mL, 2.5 min): 0.5 µM
(GR)4 concentration (enzyme 10 μg/mL, 2.5 min): 0.6 µM
(GR)6 concentration (enzyme 10 μg/mL, 2.5 min): 0.5 µM
(GR)8 concentration (enzyme 10 μg/mL, 2.5 min): 0.6 µM
(GR)10 concentration (enzyme 10 μg/mL, 2.5 min): 55.4 µM
(GR)1 concentration (enzyme 10 μg/mL, 5 min): 5.3 µM
(GR)2 concentration (enzyme 10 μg/mL, 5 min): 0.8 µM
(GR)4 concentration (enzyme 10 μg/mL, 5 min): 1.3 µM
(GR)6 concentration (enzyme 10 μg/mL, 5 min): 0.8 µM
(GR)8 concentration (enzyme 10 μg/mL, 5 min): 1.3 µM
(GR)10 concentration (enzyme 10 μg/mL, 5 min): 48.8 µM
(GR)1 concentration (enzyme 10 μg/mL, 10 min): 11.9 µM
(GR)2 concentration (enzyme 10 μg/mL, 10 min): 1.4 µM
(GR)4 concentration (enzyme 10 μg/mL, 10 min): 2.9 µM
(GR)6 concentration (enzyme 10 μg/mL, 10 min): 2.2 µM
(GR)8 concentration (enzyme 10 μg/mL, 10 min): 2.6 µM
(GR)10 concentration (enzyme 10 μg/mL, 10 min): 44.1 µM
(GR)1 concentration (enzyme 10 μg/mL, 30 min): 44.8 µM
(GR)2 concentration (enzyme 10 μg/mL, 30 min): 5.7 µM
(GR)4 concentration (enzyme 10 μg/mL, 30 min): 9.5 µM
(GR)6 concentration (enzyme 10 μg/mL, 30 min): 5.2 µM
(GR)8 concentration (enzyme 10 μg/mL, 30 min): 3.5 µM
(GR)10 concentration (enzyme 10 μg/mL, 30 min): 16.6 µM
(GR)1 concentration (enzyme 10 μg/mL, 60 min): 64.1 µM
(GR)2 concentration (enzyme 10 μg/mL, 60 min): 10.1 µM
(GR)4 concentration (enzyme 10 μg/mL, 60 min): 13.6 µM
(GR)6 concentration (enzyme 10 μg/mL, 60 min): 6.6 µM
(GR)8 concentration (enzyme 10 μg/mL, 60 min): 5.7 µM
(GR)10 concentration (enzyme 10 μg/mL, 60 min): 10.6 µM
